One block for each substance: values may come before it.
Assays:
[1] = target: keratinocyte growth factor receptor (KGFR) (UniProt P21803); experiment: cell-based or functional assay
[2] = target: keratinocyte growth factor receptor (KGFR) (UniProt P21803); experiment: competition with 125I-KGF on 32D cells expressing KGFR
[3] = target: keratinocyte growth factor receptor (KGFR) (UniProt P21803); experiment: flow cytometry on KGFR-containing B5-589 cells and NIH 3T3 transfectants, FITC rabbit anti-mouse IgG
[4] = target: KGFR-HFc fusion protein (construct not specified); experiment: binding of 125I-aFGF to KGFR-HFc in solution, capture on Gamma Bind G
[5] = target: keratinocyte growth factor (KGF) (human) (UniProt P21781); experiment: 50% displacement of 125I-KGF by unlabeled KGF, fusion protein captured on Gamma Bind G (Scatchard analysis)
[6] = target: bovine brain aFGF (bovine) (UniProt P03968); experiment: comparison value for native KGFR; method not described
[7] = target: keratinocyte growth factor (KGF) (human) (UniProt P21781); experiment: comparison value for native KGFR on epithelial cells; method not described

KGF-HFc fusion protein, sequence (P21781 other isoform, or with tags, fused parts or gaps limits assumed): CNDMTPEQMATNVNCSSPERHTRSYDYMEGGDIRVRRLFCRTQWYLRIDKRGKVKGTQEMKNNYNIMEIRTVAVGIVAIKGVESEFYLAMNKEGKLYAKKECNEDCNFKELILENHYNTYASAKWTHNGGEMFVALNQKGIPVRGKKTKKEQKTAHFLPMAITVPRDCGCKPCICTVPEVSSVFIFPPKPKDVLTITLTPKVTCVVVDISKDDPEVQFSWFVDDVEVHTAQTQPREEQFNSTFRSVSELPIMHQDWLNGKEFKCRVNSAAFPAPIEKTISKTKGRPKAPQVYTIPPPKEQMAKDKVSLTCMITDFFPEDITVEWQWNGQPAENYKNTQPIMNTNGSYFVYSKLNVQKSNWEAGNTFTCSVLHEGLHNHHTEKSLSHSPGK
bovine brain aFGF, sequence (P03968 16-155 limits assumed): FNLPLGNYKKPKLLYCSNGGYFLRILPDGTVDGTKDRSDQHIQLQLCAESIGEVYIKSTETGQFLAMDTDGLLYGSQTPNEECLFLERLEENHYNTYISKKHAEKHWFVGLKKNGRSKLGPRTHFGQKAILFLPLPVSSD
keratinocyte growth factor (KGF) (human), sequence (P21781 32-194 limits assumed): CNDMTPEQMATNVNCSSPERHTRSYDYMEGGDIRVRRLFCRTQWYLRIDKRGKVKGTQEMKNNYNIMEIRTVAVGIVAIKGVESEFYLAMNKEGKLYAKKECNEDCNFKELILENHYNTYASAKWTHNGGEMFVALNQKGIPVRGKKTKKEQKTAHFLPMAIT
bovine brain aFGF (bovine), sequence (P03968 16-155 limits assumed): as the sequence (P03968 16-155 limits assumed) above

half-maximal stimulation of 3H-thymidine uptake in BALB/MK cells [1]: 45 pM | stimulation of 3H-thymidine uptake in BALB/MK cells [1]: > 20 fold | Kd [2]: 1.4 nM | fold increase in fluorescent intensity compared to untransfected NIH 3T3 cells [3]: 10 to 100 fold
Substance: KGF-HFc fusion protein (from UniProt P21781 32-194; P01868 98-324)

ligand concentration at which saturable binding was achieved [4]: 40 to 50 ng/mL
Substance: bovine brain aFGF (from UniProt P03968 16-155) (ligand)

Kd [5]: 0.02 nM
Substance: D3-HFc fusion protein (from UniProt P21803 157-232; P01868 98-324)

Kd [6]: 0.6 nM | Kd [7]: 0.18 nM
Substance: keratinocyte growth factor receptor (KGFR) (from UniProt P21803 22-821)
